Experimental data published in US20190002549A1 (I MAB BIOPHARMA, published 2019).

Assays:
[1] = target: T1, recombinant human GM-CSF protein (human, UniProt P04141 18-144); assay: SPR Biacore T200, antibody captured by anti-human Fc, GM-CSF as analyte, 25 C, 1:1 model
T1 construct: Bought recombinant protein (Genscript); also called biotinylated human GM-CSF protein
Protocol: The binding kinetics of humanized antibodies were measured by Biacore as previously described. […] The binding kinetics assay of antibody to antigen was performed using Biacore T200 system through a human antibody capture approach. The anti-human Fc IgG were immobilized on CMS sensor chip according to the manufacturer's instruction. The test antibody was injected and captured by the immobilized anti-human Fc IgG. And then serial concentrations of the antigen were individually injected, and the binding profile was recorded for each concentration of antigen analyte, respectively.
The assay system was regenerated by injection of 10 mM Glycine-HCL pH 1.5 for 30 seconds. The running buffer was HBS-EP+ (10 mM HEPES, pH 7.4, 150 mM NaCl, 3 mM EDTA and 0.05% P20). The assay temperature was 25° C., and the association and dissociation time were 180 and 600 seconds, respectively.

[2] = target: T2, recombinant rhesus GM-CSF protein (rhesus, UniProt Q9GL44 18-144); assay: ELISA, rhesus GM-CSF coated at 1 ug/ml
T2 construct: Bought recombinant protein (Genscript)
Protocol: (§1) Recombinant rhesus GM-CSF protein (Genscript) was coated at 1 ug/ml in PBS onto microtiter plates for 2 h at room temperature (RT). After coating of antigen, the wells were blocked with PBS/0.05% Tween (PBST) with 1% BSA for 1 h at RT. After washing of the wells with PBST, different concentrations of humanized anti-GM-CSF antibodies were added to the well and incubated for 1 at RT. For detection of the binding antibodies, the HRP-conjugated secondary antibodies against mouse Fc (Jackson Immuno Research) were added, followed by the addition of fluorogenic substrates (Roche). Between all incubation steps, the wells of the plate were washed with PBST three times. Fluorescence was measured in a TECAN Spectrafluor plate reader.

[3] = target: T1, recombinant human GM-CSF protein; assay: cell-based or functional assay
[4] = target: T1, recombinant human GM-CSF protein; assay: cell-based or functional assay; remark: listed apart in the source
[5] = target: T2, recombinant rhesus GM-CSF protein; assay: ELISA, rhesus GM-CSF coated at 1 µg/ml
Protocol: as §1, with “Recombinant human or” for “Recombinant”, “μg/ml” for “ug/ml”, “antigen” for “antigen,”, “of” for “of humanized”

[6] = target: T1, recombinant human GM-CSF protein; assay: SPR Biacore T200, antibody captured by anti-mouse Fc, GM-CSF as analyte, 25 C, 1:1 model
Protocol: FIG. 4 plots the binding kinetics of 23F4 and 50C5 with recombinant human GM-CSF. […] The binding kinetics assay of antibody to antigen was performed using Biacore T200 system through a mouse antibody capture approach. The anti-mouse Fc IgG were immobilized on CMS sensor chip according to the manufacturer's instruction. The test antibody was injected and captured by the immobilized anti-mouse Fc IgG. And then serial concentrations of the antigen were individually injected, and the binding profile was recorded for each concentration of antigen analyte, respectively. The assay system was regenerated by injection of 10 mM Glycine-HCL pH 1.5 for 30 seconds. The running buffer was HBS-EP+ (10 mM HEPES, pH 7.4, 150 mM NaCl, 3 mM EDTA and 0.05% P20). The assay temperature was 25° C., and the association and dissociation time were 180 and 600 seconds, respectively.

[7] = target: T1, recombinant human GM-CSF protein; assay: ELISA, human GM-CSF coated at 1 µg/ml
Protocol: as §1, with “Recombinant human or” for “Recombinant”, “μg/ml” for “ug/ml”, “antigen” for “antigen,”, “of” for “of humanized”

[8] = target: T1, recombinant human GM-CSF protein; assay: competition ELISA: antibody titrated with biotinylated human GM-CSF (0.05 ug/ml) on coated human GM-CSF receptor alpha (CD116); signal is GM-CSF bound to the receptor
Protocol: After coating of antigen the wells were blocked with PBS/0.05% Tween (PBST) with 1% BSA for 1 h at RT. After washing of the wells with PBST, different concentrations of anti-GM-CSF antibodies were added to the well in the presence of biotinylated human GM-CSF protein (0.05 μg/ml) and incubated for 1 hr at RT.
For detection of the binding of biotinylated GM-CSF to the coated receptor, the HRP-conjugated Streptavidin was added, followed by the addition of fluorogenic substrates (Roche). Between all incubation steps, the wells of the plate were washed with PBST three times. Fluorescence was measured in a TECAN Spectrafluor plate reader.

T2 sequence (Q9GL44 entry or part of it limits assumed): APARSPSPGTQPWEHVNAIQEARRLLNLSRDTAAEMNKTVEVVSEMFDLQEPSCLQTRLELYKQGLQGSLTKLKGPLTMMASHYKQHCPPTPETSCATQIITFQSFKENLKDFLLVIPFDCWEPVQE
T1 sequence (P04141 18-144 limits assumed): as the sequence (Q9GL44 entry or part of it limits assumed) above, with G9S, K38E, V43I, S53T, Q67R, Q104E counted along it

| Kd [1] [nM] | koff [1] [s⁻¹] | kon [1] [M⁻¹ s⁻¹] | EC50 [2] [µg/mL] | IC50 for TF-1 proliferation [3] [µg/mL] | IC50 in the inhibition of TF-1 proliferation [4] [µg/mL] | EC50 [5] [µg/mL] | Kd [6] [nM] | koff [6] [s⁻¹] | kon [6] [M⁻¹ s⁻¹] | EC50 [7] [µg/mL] | IC50 (read off the curve) [8] [µg/mL] | Binder |
| --- | --- | --- | --- | --- | --- | --- | --- | --- | --- | --- | --- | --- |
| 0.0807 | 0.000103 | 1.27e+06 | 0.00775 | 0.0033 |  |  |  |  |  |  |  | Hu23F4-36 (antibody, V domains shown, Humanized) VH: EVQLVQSGAEVKKPGASVKVSCKASDYTLTSHYLHWVRQAPGQGLEWIGWIFPGDDKTKYNEKFKGRATLTSDTSISTAYMELSRLRSDDTAVYYCARGTKYLNWNFDVWGQGTTVTVSS VL: DIQLTQSPSFLSASVGDRVTITCKANQNVGTTLAWYQQKPGKAPKLLIYSASYRYSGVPSRFSGSGSGTEFTLTISSLQPEDFATYYCHQYTTYPLTFGGGTKVEIK |
| 0.0249 | 0.000111 | 4.47e+06 | 0.0189 | 0.0221 |  |  |  |  |  |  |  | Hu50C5-17 (antibody, V domains shown, Humanized; also called 35230Hu50C5-17) VH: EVQLVQSGAEVKKPGSSVKVSCKASGYIFSPYSIHWVRQAPGQGLEWIGYINPSTGYIEYNQHFKDRTTLTADKSTSTAYMELRSLRSEDTAVYYCARGGDYEGYFDYWGQGTTVTVSS VL: DIQMTQSPSSLSASVGDRVTITCRLNENIYSFLAWYQQKPGKAPKLLVYNAETLAEGVPSRFSGSGSGTDFTLTISSLQPEDFATYYCQQHYGTPYTFGGGTKVEIK |
| 0.0276 | 0.000125 | 4.54e+06 | 0.0216 | 0.0143 |  |  |  |  |  |  |  | Hu50C5-23 (antibody, V domains shown, Humanized; also called 35230Hu50C5-23) VH: EVQLVQSGAEVKKPGSSVKVSCKASGYIFTPYSIHWVRQAPGQGLEWIGYINPSTGYIEYNQHFKDRTTLTADKSTSTAYMELRSLRSEDTAVYYCARGGDYEGYFDYWGQGTTVTVSS VL: DIQMTQSPSSLSASVGDRVTITCRLNENIYSFLAWYQQKPGKAPKLLVYNAETLAEDVPSRFSGSGSGTDFTLTISSLQPEDFATYYCQQHYGTPYTFGGGTKVEIK |
|  |  |  |  |  | ~0.0109 | 0.0217 | 0.0443 | 0.00012 | 2.72e+06 | 0.0146 |  | 50C5 (antibody, V domains shown, Mouse monoclonal antibody from a hybridoma; also called 5005 (misprint of 50C5); murine antibody 50C5) VH: QVQLQQSAAELVRPGASVKMSCKASGYIFTPYSIHWIKQRPGQGLEWIGYINPSTGYIEYNQHFKDRTTLTADKSSSTAYMQLRSLTSEDSAVYYCARGGDYEGYFDYWGQGTTLTVSS VL: DIQMTQSPDSLSASVGETVTITCRLNENIYSFLAWYQQRQGKSPQLLVYNAETLAEDVPSRFSGSGSGTQFSLKISSLQTDDFGTYYCQQHYGTPYTFGGGTNLEIE |
|  |  |  |  |  | ~0.0109 | 0.0102 | 0.0417 | 3.64e-05 | 872000 | 0.0118 | ~1 | 23F4 (antibody, V domains shown, Mouse monoclonal antibody from a hybridoma; also called 23F4 antibody; murine antibody 23F4) VH: QVQLQQSGPELVKPGTSMKISCKTSDYTLTSHYLHWVKQRPGQGLEWIGWIFPGDDKTKYNEKFKGKATLTSDKTSNTAYMQLSSLTSEESAVYFCARGTKYLNWNFDVWGTGTTVTVSS VL: DIVLTQPQKFLSTSVGDRVSVTCKANQNVGTTLAWYQQKPGQSPKALIYSASYRYSGVPDRFTGSGSGTDFTLTISNVQSEDLAEYFCHQYTTYPLTFGGGTKLEIK |
